How the values were obtained:
Assay in all cases: BLI Octet 384RED (Example 8), Sortilin construct in solution
[1] = biological target: T1, Sortilin SORTECDBAP_hB12390 (human/tetraodon chimera)
T1 construct: Shuffle construct
T1 chain: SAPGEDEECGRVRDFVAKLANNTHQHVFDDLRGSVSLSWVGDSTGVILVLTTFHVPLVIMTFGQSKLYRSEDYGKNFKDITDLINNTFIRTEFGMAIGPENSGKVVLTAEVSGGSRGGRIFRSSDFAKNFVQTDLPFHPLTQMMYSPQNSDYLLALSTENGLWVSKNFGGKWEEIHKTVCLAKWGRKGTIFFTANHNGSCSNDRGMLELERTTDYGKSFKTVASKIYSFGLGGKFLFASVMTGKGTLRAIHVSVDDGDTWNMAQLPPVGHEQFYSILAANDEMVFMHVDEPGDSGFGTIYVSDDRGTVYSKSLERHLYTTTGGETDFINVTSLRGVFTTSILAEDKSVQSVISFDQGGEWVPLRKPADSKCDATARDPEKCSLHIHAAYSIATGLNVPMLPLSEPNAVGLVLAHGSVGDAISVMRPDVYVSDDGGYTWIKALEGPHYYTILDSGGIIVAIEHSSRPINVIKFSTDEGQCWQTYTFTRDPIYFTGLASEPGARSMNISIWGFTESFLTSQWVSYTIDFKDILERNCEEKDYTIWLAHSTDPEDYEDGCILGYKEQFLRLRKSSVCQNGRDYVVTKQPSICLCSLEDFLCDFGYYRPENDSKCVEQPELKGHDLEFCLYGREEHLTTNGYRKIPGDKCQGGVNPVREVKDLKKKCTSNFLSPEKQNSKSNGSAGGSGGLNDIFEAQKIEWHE
Procedure: (§1) Binding kinetics of anti-Sortilin HuMab antibodies to Sortilin were determined using Octet 384RED (Fortebio, Menlo Park, USA). HuMab solutions of 2 μg/ml were made by dilution in sample diluent (ForteBio, art. No. 18-5028). Prot A sensors (ForteBio, art. no. 18-0004) were prewetted with kinetics buffer (1:10 sample diluent in PBS) for at least 600 seconds. Subsequently sensors were immobilized with HuMab solution for 600 seconds. A baseline response was obtained by dipping in kinetics buffer for 120 seconds. Association of SORTECD constructs was performed during a 1000 seconds incubation. This was followed by dissociation in kinetics buffer for 100 seconds. After dissociation, sensors were regenerated (10 mM Glycine pH 1.0) and neutralized (kinetics buffer) 3 times for 5 seconds. […] A molecular weight of 76.8 kDA was used for SORTECDHis. Data was fitted with ForteBio Analysis 6.4 software, using a global full fit.

[2] = biological target: T2, Sortilin SORTECDBAP_tetra (tetraodon)
T2 construct: Fully tetraodon Sortilin ECD with BAP tag; also called tetraodon Sortilin
T2 chain: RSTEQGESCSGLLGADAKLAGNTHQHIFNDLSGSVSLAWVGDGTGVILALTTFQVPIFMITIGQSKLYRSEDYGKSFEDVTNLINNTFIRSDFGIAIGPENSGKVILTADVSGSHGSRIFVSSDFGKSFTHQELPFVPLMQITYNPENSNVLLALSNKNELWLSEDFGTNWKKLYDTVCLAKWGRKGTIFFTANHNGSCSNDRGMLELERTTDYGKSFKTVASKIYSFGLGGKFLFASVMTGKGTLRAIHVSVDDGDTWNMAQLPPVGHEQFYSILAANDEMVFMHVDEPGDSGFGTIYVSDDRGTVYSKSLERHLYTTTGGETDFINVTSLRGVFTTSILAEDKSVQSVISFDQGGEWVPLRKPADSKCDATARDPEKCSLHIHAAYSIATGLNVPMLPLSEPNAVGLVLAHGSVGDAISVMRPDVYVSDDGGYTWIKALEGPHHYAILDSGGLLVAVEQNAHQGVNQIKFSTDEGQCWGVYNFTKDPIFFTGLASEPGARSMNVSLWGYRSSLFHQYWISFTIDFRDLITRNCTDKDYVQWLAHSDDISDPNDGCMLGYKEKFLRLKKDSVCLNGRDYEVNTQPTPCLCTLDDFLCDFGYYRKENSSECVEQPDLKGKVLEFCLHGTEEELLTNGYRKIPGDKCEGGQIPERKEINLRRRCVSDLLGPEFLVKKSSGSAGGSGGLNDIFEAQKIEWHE
Procedure: as §1

[3] = biological target: T3, Sortilin SORTECDBAP_hB01-05 (human/tetraodon chimera)
T3 construct: Shuffle construct
T3 chain: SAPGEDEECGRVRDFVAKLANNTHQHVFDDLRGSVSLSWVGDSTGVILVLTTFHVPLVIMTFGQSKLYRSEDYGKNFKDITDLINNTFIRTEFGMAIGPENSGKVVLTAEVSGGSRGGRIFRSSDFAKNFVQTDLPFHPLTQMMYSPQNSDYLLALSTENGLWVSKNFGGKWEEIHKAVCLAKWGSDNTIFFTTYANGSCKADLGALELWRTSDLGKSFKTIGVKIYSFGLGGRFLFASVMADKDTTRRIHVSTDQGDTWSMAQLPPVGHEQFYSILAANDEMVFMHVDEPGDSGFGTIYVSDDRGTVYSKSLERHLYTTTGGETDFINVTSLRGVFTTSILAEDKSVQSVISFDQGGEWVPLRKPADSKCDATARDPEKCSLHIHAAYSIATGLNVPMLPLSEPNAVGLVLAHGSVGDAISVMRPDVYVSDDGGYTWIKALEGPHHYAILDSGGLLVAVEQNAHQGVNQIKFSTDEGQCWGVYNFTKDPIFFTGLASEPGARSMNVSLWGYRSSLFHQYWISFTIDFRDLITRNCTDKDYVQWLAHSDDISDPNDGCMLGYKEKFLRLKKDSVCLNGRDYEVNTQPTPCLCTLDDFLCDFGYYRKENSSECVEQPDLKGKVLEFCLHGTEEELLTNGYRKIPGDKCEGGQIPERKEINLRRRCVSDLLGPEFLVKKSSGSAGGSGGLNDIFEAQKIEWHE
Procedure: as §1

B1: Antibody 5E1 (antibody, V domains shown)
VH: EVHLVESGGDLVNPGGSLKLSCEASGFIFSIYGMSWVRQTPDKRLEWVAMISSGGIYTQYPDSVKGRFTISRDNAKNTLYLQMSGLKSEDTGTYHCTRHDDSWFAYWGQGTLVTVSA
VL: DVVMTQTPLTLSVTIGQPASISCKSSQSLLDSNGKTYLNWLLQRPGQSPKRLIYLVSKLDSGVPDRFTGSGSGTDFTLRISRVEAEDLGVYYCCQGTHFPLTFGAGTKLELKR
notes: Mouse anti-human Sortilin monoclonal antibody from hybridoma (BALB/c), purified on protein G; Assigned to the D Region; also called 5E1F6; Ab 5E1
EC50 [1]: 0.59 ng/mL
binding result [2]: no binding (tested: 10 µg/ml construct)
binding result [3]: no binding (tested: 10 µg/ml construct)

B2: Antibody 1F2 (antibody, V domains shown)
VH: EVQLVESGGDLVKPGGSLKLSCAASGFTFSSYGMSWVRQTPDKRLEWVAIISSGGSYTHYPDSVKGRFTISRDNAKNTLYLQMSSLKSEDTAMYYCARLCGPLCSGYWGQGTSVTVSS
VL: QAVVTQESALTTSPGETVTLTCRSSTGAVTTSNYANWVQEKPDHLFTGLIGGTNNRAPGVPARFSGSLIGDKAALTITGAQTEDEAIYFCALWYSNHFWVFGGGTKLTVLG
notes: Mouse anti-human Sortilin monoclonal antibody from hybridoma (BALB/c), purified on protein G; Assigned to the D Region; also called 1F2F4; Ab 1F2
EC50 [1]: 1.1 ng/mL
binding result [2]: no binding (tested: 10 µg/ml construct)
binding result [3]: no binding (tested: 10 µg/ml construct)

Source: US20230159643A1 (H LUNDBECK A S, published 2023)
